# Data from paper PMC10448178.
# Target: T1, AhrC (Bacillus subtilis) (UniProt P17893)
# T1 sequence: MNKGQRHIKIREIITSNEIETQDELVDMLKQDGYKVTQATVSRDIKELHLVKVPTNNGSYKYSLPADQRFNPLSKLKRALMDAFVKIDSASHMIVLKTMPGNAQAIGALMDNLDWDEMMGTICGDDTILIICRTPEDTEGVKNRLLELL
# Test: EMSA
# Conditions: 10 mM Tris-HCl pH 7.5, 43 mM NaCl, 1 mM MnCl2, 1 mM DTT, 5% glycerol, 1 ug poly[dI-dC] per 14 ul, 23 C 15 min; 5% PAGE in 40 mM Tris-acetate at 4 C
row,Sequence,binding
1,CCGAAGCTTTCTCCTAAATCACAGTTTAAATCAATCTGAAACACAGAATCCCTCCTGCCAAAGCAAACGATATGCTTTATGTCATTTATTGTCCCGAAATTCGGAACGACTATTCCGAATTTTTGAACTTTATTTCATTATAAGTGAATCATATCAGTTTGTGAAATACTTTTGTCAGAAAACCTACCATGGTCCCAGAATAAAACCTGCCAAACTAAAAAAGAGAGTCCATCTTAGGACTCTGAATTCGAT (double strand) [PpxpA probe 2],binds
2,CCGAAGCTTTCTCCTAAATCACAGTTTAAATCAATCTGAAACACAGAATCCCTCCTGCCAAAGCAAACGATATGCTTTATGTCATTTATTGTCCCGAAATTCGGAACGACTATTCCGAATTTTTGAACTTTATTTCATTATAAGTGAATCATATCAGTTTGTGAAATACTTTTGTCAGAAAACCTACCATGGTCCCAGAATAAAACCTGCCAAACTAAAGAATTCGAT (double strand) [PpxpA probe 3],binds more weakly
3,GCGCTTTCAGCGAATGTGTGGAAAAAATGTTTCGTTTTTTATTCGCTGTGTGATTTTGCGTAATATTTACAATTCGATAGAATGCGAGAAGCACTGGTGTCCTTGGGTTTGATGGGATTTTTGGCGGAGCAAATAAATTGGATGAGAGAAAAAGTGTTCCTTCGTCACTATTTTTCTGTGGCGGGTGAATCATGTTTCTGTAGACCCACTGCGGATCAGCTTTGTAAGATAATAATAGGAAAATGTGAGCGAGAGGAGGTTTTGTATGGAGAGATATGATGAACTG (double strand) [PmneS],binds
4,TTTAGTTTGGCAGGTTTTATTCTGGGACCATGGTAGGTTTTCTGACAAAAGTATTTCACAAACTGATATGATTCACTTATAATGAAATAAAGTTCAAAAATTCGGAAGCTTCCG (double strand) [PpxpA probe 5],binds more weakly

# Target: T2, MntR (Bacillus subtilis) (UniProt P54512)
# T2 sequence: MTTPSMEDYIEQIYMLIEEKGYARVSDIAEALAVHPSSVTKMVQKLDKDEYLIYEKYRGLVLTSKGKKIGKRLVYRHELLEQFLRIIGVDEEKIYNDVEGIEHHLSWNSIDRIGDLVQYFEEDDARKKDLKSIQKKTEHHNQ
# Test: EMSA
# Conditions: 10 mM Tris-HCl pH 7.5, 43 mM NaCl, 1 mM MnCl2, 1 mM DTT, 5% glycerol, 1 ug poly[dI-dC] per 14 ul, 23 C 15 min; 5% PAGE in 40 mM Tris-acetate at 4 C
row,Sequence,binding
1,ATGAAGCTTCAAAGAGTTTCCTTAAGGCAAATTATTTTATCTACATCATATGACCATCCCGGTTTCTTGTCAACCGAAAATGTTCAAAATACACTTCTGAATTTTTCCCTGTTATGTAACATGATATGTAGGGATTCGTGATAAGGTCCCATATAAAAAGACATCGTTTCATTTCGAAACGATGCCTCCTGTATCTAATGAGTCTAGGCTTCCTTCCGCAGCCCGCGGAATATAAGGCCCAGCAAGAACACGAAGATGGCTGCCCCGATGATGGCCGGGA (double strand) [PmntH del1],binds
2,ATGAAGCTTTTATCTACATCATATGACCATCCCGGTTTCTTGTCAACCGAAAATGTTCAAAATACACTTCTGAATTTTTCCCTGTTATGTAACATGATATGTAGGGATTCGTGATAAGGTCCCATATAAAAAGACATCGTTTCATTTCGAAACGATGCCTCCTGTATCTAATGAGTCTAGGCTTCCTTCCGCAGCCCGCGGAATATAAGGCCCAGCAAGAACACGAAGATGGCTGCCCCGATGATGGCCGGGA (double strand) [PmntH del2],no binding
